Reference: patent publication US20120238496A1

Molecular target: FGF-21 receptor
Test: cell-based or functional assay

“recombinant human FGF-21 (from UniProt Q9NSA1 29-209) (ligand)” was tested, and the Glucose uptake CPM, 3T3-L1 fat cells, protein at 0 nM (baseline) was 1880 CPM, the Glucose uptake CPM, 3T3-L1 fat cells, protein at 0.03 nM was 1800 CPM and the Glucose uptake CPM, 3T3-L1 fat cells, protein at 0.15 nM was 2110 CPM. It also gave a Glucose uptake CPM, 3T3-L1 fat cells, protein at 0.8 nM of 2200 CPM, a Glucose uptake CPM, 3T3-L1 fat cells, protein at 4 nM of 3300 CPM and a Glucose uptake CPM, 3T3-L1 fat cells, protein at 20 nM of 5130 CPM. For the same substance, the Glucose uptake CPM, 3T3-L1 fat cells, protein at 100 nM was 5320 CPM.
